Experimental data taken from patent US12104181B2, “Compositions and methods for treating viral infections targeting TRIM7” (THE BOARD OF REGENTS OF THE UNIVERSITY OF TEXAS SYSTEM, priority 2021, dated 2024).

Tested on: coxsackievirus B3 (CVB3-GFP)
Type: cell-based
Conditions: HeLa cells, replicate R1; for Percent Infected R1: GFP-positive cells within RFP-positive gate

Row | Molecule | Percent Infected R1 [%] | Z score R1
1 | TRIM18: human RING type E3 ligase expressed from lentiviral vector (protein, UniProt O15344 1-667, looked up, lentiviral expression, human RING type E3 ligase expressed from lentiviral vector) E3 ubiquitin-protein ligase …: METLESELTCPICLELFEDPLLLPCAHSLCFNCAHRILVSHCATNESVESITAFQCPTCRHVITLSQRGLDGLKRNVTLQNIIDRFQKASVSGPNSPSETRRERAFDANTMTSAEKVLCQFCDQDPAQDAVKTCVTCEVSYCDECLKATHPNKKPFTGHRLIEPIPDSHIRGLMCLEHEDEKVNMYCVTDDQLICALCKLVGRHRDHQVAALSERYDKLKQNLESNLTNLIKRNTELETLLAKLIQTCQHVEVNASRQEAKLTEECDLLIEIIQQRRQIIGTKIKEGKVMRLRKLAQQIANCKQCIERSASLISQAEHSLKENDHARFLQTAKNITERVSMATASSQVLIPEINLNDTFDTFALDFSREKKLLECLDYLTAPNPPTIREELCTASYDTITVHWTSDDEFSVVSYELQYTIFTGQANVVSLCNSADSWMIVPNIKQNHYTVHGLQSGTKYIFMVKAINQAGSRSSEPGKLKTNSQPFKLDPKSAHRKLKVSHDNLTVERDESSSKKSHTPERFTSQGSYGVAGNVFIDSGRHYWEVVISGSTWYAIGLAYKSAPKHEWIGKNSASWALCRCNNNWVVRHNSKEIPIEPAPHLRRVGILLDYDNGSIAFYDALNSIHLYTFDVAFAQPVCPTFTVWNKCLTIITGLPIPDHLDCTEQLP | 71.6 | −0.216
2 | TRIM20: human RING type E3 ligase expressed from lentiviral vector (protein, UniProt O15553 1-781, looked up, lentiviral expression, human RING type E3 ligase expressed from lentiviral vector) Pyrin: MAKTPSDHLLSTLEELVPYDFEKFKFKLQNTSVQKEHSRIPRSQIQRARPVKMATLLVTYYGEEYAVQLTLQVLRAINQRLLAEELHRAAIQEYSTQENGTDDSAASSSLGENKPRSLKTPDHPEGNEGNGPRPYGGGAASLRCSQPEAGRGLSRKPLSKRREKASEGLDAQGKPRTRSPALPGGRSPGPCRALEGGQAEVRLRRNASSAGRLQGLAGGAPGQKECRPFEVYLPSGKMRPRSLEVTISTGEKAPANPEILLTLEEKTAANLDSATEPRARPTPDGGASADLKEGPGNPEHSVTGRPPDTAASPRCHAQEGDPVDGTCVRDSCSFPEAVSGHPQASGSRSPGCPRCQDSHERKSPGSLSPQPLPQCKRHLKQVQLLFCEDHDEPICLICSLSQEHQGHRVRPIEEVALEHKKKIQKQLEHLKKLRKSGEEQRSYGEEKAVSFLKQTEALKQRVQRKLEQVYYFLEQQEHFFVASLEDVGQMVGQIRKAYDTRVSQDIALLDALIGELEAKECQSEWELLQDIGDILHRAKTVPVPEKWTTPQEIKQKIQLLHQKSEFVEKSTKYFSETLRSEMEMFNVPELIGAQAHAVNVILDAETAYPNLIFSDDLKSVRLGNKWERLPDGPQRFDSCIIVLGSPSFLSGRRYWEVEVGDKTAWILGACKTSISRKGNMTLSPENGYWVVIMMKENEYQASSVPPTRLLIKEPPKRVGIFVDYRVGSISFYNVTARSHIYTFASCSFSGPLQPIFSPGTRDGGKNTAPLTICPVGGQGPD | 78.8 | −0.125
3 | TRIM22: human RING type E3 ligase expressed from lentiviral vector (protein, UniProt Q8IYM9 1-498, looked up) E3 ubiquitin-protein ligase …: MDFSVKVDIEKEVTCPICLELLTEPLSLDCGHSFCQACITAKIKESVIISRGESSCPVCQTRFQPGNLRPNRHLANIVERVKEVKMSPQEGQKRDVCEHHGKKLQIFCKEDGKVICWVCELSQEHQGHQTFRINEVVKECQEKLQVALQRLIKEDQEAEKLEDDIRQERTAWKNYIQIERQKILKGFNEMRVILDNEEQRELQKLEEGEVNVLDNLAAATDQLVQQRQDASTLISDLQRRLRGSSVEMLQDVIDVMKRSESWTLKKPKSVSKKLKSVFRVPDLSGMLQVLKELTDVQYYWVDVMLNPGSATSNVAISVDQRQVKTVRTCTFKNSNPCDFSAFGVFGCQYFSSGKYYWEVDVSGKIAWILGVHSKISSLNKRKSSGFAFDPSVNYSKVYSRYRPQYGYWVIGLQNTCEYNAFEDSSSSDPKVLTLFMAVPPCRIGVFLDYEAGIVSFFNVTNHGALIYKFSGCRFSRPAYPYFNPWNCLVPMTVCPPSS | 49.4 | −0.499
4 | TRIM17: human RING type E3 ligase expressed from lentiviral vector (protein, UniProt Q9Y577 1-477, looked up) E3 ubiquitin-protein ligase …: MEAVELARKLQEEATCSICLDYFTDPVMTTCGHNFCRACIQLSWEKARGKKGRRKRKGSFPCPECREMSPQRNLLPNRLLTKVAEMAQQHPGLQKQDLCQEHHEPLKLFCQKDQSPICVVCRESREHRLHRVLPAEEAVQGYKLKLEEDMEYLREQITRTGNLQAREEQSLAEWQGKVKERRERIVLEFEKMNLYLVEEEQRLLQALETEEEETASRLRESVACLDRQGHSLELLLLQLEERSTQGPLQMLQDMKEPLSRKNNVSVQCPEVAPPTRPRTVCRVPGQIEVLRGFLEDVVPDATSAYPYLLLYESRQRRYLGSSPEGSGFCSKDRFVAYPCAVGQTAFSSGRHYWEVGMNITGDALWALGVCRDNVSRKDRVPKCPENGFWVVQLSKGTKYLSTFSALTPVMLMEPPSHMGIFLDFEAGEVSFYSVSDGSHLHTYSQATFPGPLQPFFCLGAPKSGQMVISTVTMWVKG | 75.9 | −0.162
5 | TRIM23: human RING type E3 ligase expressed from lentiviral vector (protein, UniProt P36406 1-574, looked up) E3 ubiquitin-protein ligase …: MATLVVNKLGAGVDSGRQGSRGTAVVKVLECGVCEDVFSLQGDKVPRLLLCGHTVCHDCLTRLPLHGRAIRCPFDRQVTDLGDSGVWGLKKNFALLELLERLQNGPIGQYGAAEESIGISGESIIRCDEDEAHLASVYCTVCATHLCSECSQVTHSTKTLAKHRRVPLADKPHEKTMCSQHQVHAIEFVCLEEGCQTSPLMCCVCKEYGKHQGHKHSVLEPEANQIRASILDMAHCIRTFTEEISDYSRKLVGIVQHIEGGEQIVEDGIGMAHTEHVPGTAENARSCIRAYFYDLHETLCRQEEMALSVVDAHVREKLIWLRQQQEDMTILLSEVSAACLHCEKTLQQDDCRVVLAKQEITRLLETLQKQQQQFTEVADHIQLDASIPVTFTKDNRVHIGPKMEIRVVTLGLDGAGKTTILFKLKQDEFMQPIPTIGFNVETVEYKNLKFTIWDVGGKHKLRPLWKHYYLNTQAVVFVVDSSHRDRISEAHSELAKLLTEKELRDALLLIFANKQDVAGALSVEEITELLSLHKLCCGRSWYIQGCDARSGMGLYEGLDWLSRQLVAAGVLDVA | 61.5 | −0.345
6 | TRIM19: human RING type E3 ligase expressed from lentiviral vector (protein, UniProt P29590 1-882, looked up) Protein PML: MEPAPARSPRPQQDPARPQEPTMPPPETPSEGRQPSPSPSPTERAPASEEEFQFLRCQQCQAEAKCPKLLPCLHTLCSGCLEASGMQCPICQAPWPLGADTPALDNVFFESLQRRLSVYRQIVDAQAVCTRCKESADFWCFECEQLLCAKCFEAHQWFLKHEARPLAELRNQSVREFLDGTRKTNNIFCSNPNHRTPTLTSIYCRGCSKPLCCSCALLDSSHSELKCDISAEIQQRQEELDAMTQALQEQDSAFGAVHAQMHAAVGQLGRARAETEELIRERVRQVVAHVRAQERELLEAVDARYQRDYEEMASRLGRLDAVLQRIRTGSALVQRMKCYASDQEVLDMHGFLRQALCRLRQEEPQSLQAAVRTDGFDEFKVRLQDLSSCITQGKDAAVSKKASPEAASTPRDPIDVDLPEEAERVKAQVQALGLAEAQPMAVVQSVPGAHPVPVYAFSIKGPSYGEDVSNTTTAQKRKCSQTQCPRKVIKMESEEGKEARLARSSPEQPRPSTSKAVSPPHLDGPPSPRSPVIGSEVFLPNSNHVASGAGEAEERVVVISSSEDSDAENSSSRELDDSSSESSDLQLEGPSTLRVLDENLADPQAEDRPLVFFDLKIDNETQKISQLAAVNRESKFRVVIQPEAFFSIYSKAVSLEVGLQHFLSFLSSMRRPILACYKLWGPGLPNFFRALEDINRLWEFQEAISGFLAALPLIRERVPGASSFKLKNLAQTYLARNMSERSAMAAVLAMRDLCRLLEVSPGPQLAQHVYPFSSLQCFASLQPLVQAAVLPRAEARLLALHNVSFMELLSAHRRDRQGGLKKYSRYLSLQTTTLPPAQPAFNLQALGTYFEGLLEGPALARAEGVSTPLAGRGLAERASQQS | 60.8 | −0.354
7 | RLIM: human RING type E3 ligase expressed from lentiviral vector (protein, UniProt Q9NVW2 1-624, looked up) E3 ubiquitin-protein ligase …: MENSDSNDKGSGDQSAAQRRSQMDRLDREEAFYQFVNNLSEEDYRLMRDNNLLGTPGESTEEELLRRLQQIKEGPPPQNSDENRGGDSSDDVSNGDSIIDWLNSVRQTGNTTRSGQRGNQSWRAVSRTNPNSGDFRFSLEINVNRNNGSQNSENENEPSARRSSGENVENNSQRQVENPRSESTSARPSRSERNSTEALTEVPPTRGQRRARSRSPDHRRTRARAERSRSPLHPMSEIPRRSHHSISSQTFEHPLVNETEGSSRTRHHVTLRQQISGPELLSRGLFAASGTRNASQGAGSSDTAASGESTGSGQRPPTIVLDLQVRRVRPGEYRQRDSIASRTRSRSQTPNNTVTYESERGGFRRTFSRSERAGVRTYVSTIRIPIRRILNTGLSETTSVAIQTMLRQIMTGFGELSYFMYSDSDSEPTGSVSNRNMERAESRSGRGGSGGGSSSGSSSSSSSSSSSSSSSSSSSSPSSSSGGESSETSSDLFEGSNEGSSSSGSSGARREGRHRAPVTFDESGSLPFLSLAQFFLLNEDDDDQPRGLTKEQIDNLAMRSFGENDALKTCSVCITEYTEGNKLRKLPCSHEYHVHCIDRWLSENSTCPICRRAVLASGNRESVV | 82 | −0.08
